Measurements published in the DeepSol protein solubility set.

test: soluble on expression in E. coli; label from the status in PepcDB or PDB records

Q: Which “soluble on expression in E. coli” value does the source give for “MTLAATLREADLFRSLPKGFVQCRACAHYCALPEGGAGKCGVRRNLGGRLYLVTYGKAAALHLDPVEKKPLYHFHPGEGILSVGTVGCNLFCAFCQNWQISQFREFRVSPEGRLDRPIGEDWPPKRLVAEAEALGVRLLAYTYNEPAVWIEYAHDTARLAKARGMKNVFVTSGFETKEAWDYIRPHLDAANVDLKGFTEKFYREVCGARLKPVLESLGHLVASGVWVEVTTLLLEGYNDSDEEVRAMARFLKGLSPDIPWHLTAAHPDYRMLDLRSTRHATLVRAHAIAKEEGLRFVYVGNVLDEERNSTYCPNCGRLLVRRRGYRVEALWEAPGVCPGCGQRIPGVWTW” here?
A: Its value is “soluble”.

Q: For “NCCVKGNSIYPQKTSTKQTGLMLDIARHFYSPEVIKSFIDTISLSGGNFLHLHFSDHENYAIESHLLNQRAENAVQGKDGIYINPYTGKPFLSYRQLDDIKAYAKAKGIELIPELDSPNHMTAIFKLVQKDRGVKYLQGLKSRQVDDEIDITNADSITFMQSLMSEVIDIFGDTSQHFHIGGDEFGYSVESNHEFITYANKLSYFLEKKGLKTRMWNDGLIKNTFEQINPNIEITYWSYDGDTQDKNEAAERRDMRVSLPELLAKGFTVLNYNSYYLYIVPKASPTFSQDAAFAAKDVIKNWDLGVWDGRNTKNRVQNTHEIAGAALSIWGEDAKALKDETIQKNTKSLLEAVIHKTNGDEHHHHHH”, which “soluble on expression in E. coli” value is on record?
A: Its value is “soluble”.

Q: With “MSLDVTNRIERALTEALNQADMAGCPPRLAAAMRSAVFPRGARVRPRLCHSVALACGEDNPGITEAAGAALELMHCASLIHDDLPCFDGADLRRGRPSVHKAFGEPLAVLAGDAMIVLAFQTIARAEGQADRLLKLTQIIGGAVGVPFGIVAGQAWECETEINLAHYHRSKTGALFVAATAMGAASAGSDPEPWRMVGEKIGEAYQVADDLRDAAADVEEIGKPVGQDVAHDRPSAVREMGIDGAIYHLKSLVRGAVEAMPECTNGNELRSLIMSEATRLVPAEGHHHHHH” as the sequence, how does the “soluble on expression in E. coli” value read?
A: The value was “soluble”.

Q: With “MAANSTRRPIIAFMSDLGTTDDSVAQCKGLMYSICPDVTVVDVCHSMTPWDVEEGARYIVDLPRFFPEGTVFATTTYPATGTTTRSVAVRIKQAAKGGARGQWAGSGAGFERAEGSYIYIAPNNGLLTTVLEEHGYLEAYEVTSPKVIPEQPEPTFYAREMVAIPSAHLAAGFPLSEVGRPLEDHEIVRFNRPAVEQDGEALVGVVSAIDHPFGNVWTNIHRTDLEKAGIGYGARLRLTLDGVLPFEAPLTPTFADAGEIGNIAIYLNSRGYLSIARNAASLAYPYHLKEGMSARVEAR” as the sequence, how does the “soluble on expression in E. coli” value read?
A: Its value is “soluble”.

Q: Which “soluble on expression in E. coli” value does the source give for “MGSDKIHHHHHHMKQLFDNVSAMCSKLTTKKYSTSFSLGIHFLHKKLHDPVYAIYGFVRFADEIVDSFHGYDKKRLMAQFRRDTAFALQDKISLNPILNSFQHVVHTYNIEWELIDTFLKSMEMDLDQSAHNEQSYKEYIIGSAEVVGLMCLRVFVKGDVDMYEKQKPHAMSLGAAFQKVNFLRDAKEDFDSLGRTYFPDVSMEKFDRHIKQNIESDIEKDFQHALIGIKQLPAESRLGVYLAYIYYKNLFHKIKSIPPERMLKERIRIPNLNKFALLFQCYFRNQFNIL” here?
A: Its value is “not soluble”.

Q: For “GPGSMSLKVNILGHEFSNPFMNAAGVLCTTEEDLRRMTESESGSLIGKSCTLAPRTGNPEPRYFGLPLGSINSMGLPNLGVDFYLSYAAQTHDYSRKPLFLSMSGLSVEESVEMVKKLAPITKEKGTILELNLSCPNVPGKPQVGYDFDTTRTYLQKVSEAYGLPFGVKMPPYFDIAHFDMAAAVLNDFPLVKFITCVNSIGNGLVIDPANETVVIKPKQGFGGLGGKYVLPTALANVNAFFRRCPDKLVFGCGGVYSGEEAFLHILAGASMVQVGTALHDEGPIIFARLNKELQEIMTNKGYKTLDEFRGRVKTMD”, which “soluble on expression in E. coli” value is on record?
A: The value was “soluble”.

Q: With “QEPFHVVTPLLESWALSQVAGMPVFLKCENVQPSGSFKIRGIGHFCQEMAKKGCRHLVCSSGGNAGIAAAYAARKLGIPATIVLPESTSLQVVQRLQGEGAEVQLTGKVWDEANLRAQELAKRDGWENVPPFDHPLIWKGHASLVQELKAVLRTPPGALVLAVGGGGLLAGVVAGLLEVGWQHVPIIAMETHGAHCFNAAITAGKLVTLPDITSVAKSLGAKTVAARALECMQVCKIHSEVVEDTEAVSAVQQLLDDERMLVEPACGAALAAIYSGLLRRLQAEGCLPPSLTSVVVIVCGGNNINSRELQALKTHLGQ” as the sequence, how does the “soluble on expression in E. coli” value read?
A: The value was “soluble”.

Q: With “MGSDKIHHHHHHVINLKELKILHTSDWHLGVTSWTSSRPVDRREELKKALDKVVEEAEKREVDLILLTGDLLHSRNNPSVVALHDLLDYLKRMMRTAPVVVLPGNHDWKGLKLFGNFVTSISSDITFVMSFEPVDVEAKRGQKVRILPFPYPDESEALRKNEGDFRFFLESRLNKLYEEALKKEDFAIFMGHFTVEGLAGYAGIEQGREIIINRALIPSVVDYAALGHIHSFREIQKQPLTIYPGSLIRIDFGEEADEKGAVFVELKRGEPPRYERIDASPLPLKTLYYKKIDTSALKSIRDFCRNFPGYVRVVYEEDSGILPDLMGEIDNLVKIE” as the sequence, how does the “soluble on expression in E. coli” value read?
A: The value was “soluble”.

Q: With “MGSDKIHHHHHHLAIFIQYIDTLKLVSIGKNDMYSIEQLEAFVATVKTGSFSSAARALNKAQSVISQHVINLEIDCNSELFDRSGRYPQLTPAGKKLLPHAQVLLSQHQRLRDCAQSLDQQAISELTIGLDEGIPLQKLFNIINELEAKFPTITLEFLTASSIDIIDMIDTERAVTGIIFSELTIPAHIDFESIGSIKFDMYVASTHLLAQQIYDNLAHLKLHRQLLIRSRNTKSSSFQFAISPDVWYADNYYILLELALQGHGWCLLPNHIANHYVDSGQLVMLPSEFKEIGWQANVDVIQHHRYSHEPVFKQLRHSLRQLLTYSA” as the sequence, how does the “soluble on expression in E. coli” value read?
A: Its value is “not soluble”.

Q: For “MSLKHVVVIGAVALGPKAACRFKRLDPEAHVTMIDQASRISYGGCGIPYYVSGEVSNIESLQATPYNVVRDPEFFRINKDVEALVETRAHAIDRAAHTVEIENLRTGERRTLKYDKLVLALGSKANRPPVEGMDLAGVTPVTNLDEAEFVQHAISAGEVSKAVIVGGGFIGLEMAVSLADMWGIDTTVVELADQIMPGFTSKSLSQMLRHDLEKNDVVVHTGEKVVRLEGENGKVARVITDKRTLDADLVILAAGVSPNTQLARDAGLELDPRGAIIVDTRMRTSDPDIFAGGDCVTIPNLVTGKPGFFPLGSMANRQGRVIGTNLADGDATFPGAVGSWAVKLFEGSASGAGLTVEGALREGYDAVNVHVEQFDRAHFYPEKTIMTLQLVVDRPTRRVLGIQGFSTLGDALTARINAVATMLASKPTVEDISNAEVVYSPPFASAMDIVNVAGNVADNVLAGRCRLVGTEEFVQLWEGRKDADICFVDTRLAANAVPLVEKYGDEWINIPEEELAARIDEIPRDKTVMLVCNTGLRSFESQLILDRLGLTNTKSVAGGMVAIHKIGGDEGHHHHHH”, which “soluble on expression in E. coli” value is on record?
A: The value was “soluble”.

Q: For “EPTNAPAALSRRFSVAPMMDWTDRHCRFFLRQLSRHTLLYTEMVTTGALLHGDRQRFLRYDECEHPLALQLGGSVPAELAACARLAEEAGYDEVNLNVGCPSDRVQHNMIGACLMGHPALVADCVKAMLDAVEIAVTVKHRIGINGRDSYAELCDFVGQVREAGCRSFTVHARIAILEGLSPKENREVPPLRYEVAAQLKKDFPDLEIVLNGGIKTLEACREHLQTFDGVMLGREAYHNPYLLAAVDSQLFGSEAPPLSRSEALLRLRPYIERHQAEGGAMHHVTRHILGLAQGFPGSRRFRQLLSVDVHKAADPLRVFDQA”, which “soluble on expression in E. coli” value is on record?
A: The value was “not soluble”.

Q: For “MREPIVAIATPYGESAIGIVRLSGKGVLDLVKKFFKTKREIKPRYAHFGVLYDDKGEELDEGVLIYYKAPHSYTGEDMVELNLHGNPRILKRALELFVNAGARLAEPGEFTKRAFLNGKLDLTQAEAVAELISAKTELARKVALKQLHGELSKHIRPLRETLLELLAYVEADIEFAEEDIPTLTKEQVIQMVDKVIEGINELLKTAKTGKFIREGVKLAIVGRPNVGKSSLFNALLKEERAIVTDIAGTTRDFIEETLQIKGVPVRLVDTAGIRETKDLVERIGVERSKQKVKEADLILFVIDASQEITEEDLRIYEEIKEKDHIVVANKVDLGIRANLEKFKGEKIVKVSALKGTGLEELSEEILKKVGANLEESVNIYISVRHETLLKKAKEVLERFKEEFREKDISPEIAMLDLREASDYLGEILGEITTEDLLGKIFSTFCIGK”, which “soluble on expression in E. coli” value is on record?
A: The value was “soluble”.

Q: With “MGSDKIHHHHHHMKNTTLSSRKHRSLETKKKLLHSGYIVFINNGFQKTTITQIIKHAETGYGTAYVYFKNKDDLLTVLMEDVMNQFYDIAERSFSPQTKEEARNMIQNQVRAFLQLAEKERAILQVVEEAIGLSKEIRQKWDEIRERFINSITQDITYSQENGLAHPELNKETVARAWFAMNEIFLWTIVKNDKKLELEEIVHTLTEMYTTGLYK” as the sequence, how does the “soluble on expression in E. coli” value read?
A: Its value is “not soluble”.

Q: With “MSLDRELKNLHLNISQLAALSGAHRQTVAARVKNISPAGGHESNLKLYRLTDILAELMKAPLPVDNEEMDPHARKAWYQSERDRLKFEQETGQLVPVSDVRRSFSVVVKAIVQVLETWPDRLERDRGWTASQLNEVQIVVDEIRDTLEKAVIDCCDEADEGHHHHHH” as the sequence, how does the “soluble on expression in E. coli” value read?
A: The value was “soluble”.

Q: Which “soluble on expression in E. coli” value does the source give for “MNITPLTSAAGKGSSAQGTDKISIPNSTRMINAASIKWLNKVRSAISDHIRTSIEKGKLFELASLGSNMFGVPALSARPSTLQPVLAFEADPNHDLNLVRVYMQDSAGKLTPWDPTPNAVTTTSNPSEPDAQSDTASSSLPRRPPAGSVLSLLGIALDHAQRHSPRADRSAKGRPGREERNGARFNAKQTKPTEAEAYGDHQTPNPDLHRQKETAQRVAESINSMREQQNGMQRAEGLLRAKEALQAREAARKQLLDVLEAIQAGREDSTDKKISATEKNATGINYQ” here?
A: Its value is “not soluble”.

Q: With “MSDEQIDKLVSRLDGALNRLGNVKKDHPLESSSNSKPTHQPKSPAPYRQKIEKLSAEVVDSNPYSRLMALQRMGIVNEYERIREKTVAVVGVGGVGSVVAEMLTRCGIGKLILFDYDKVEIANMNRLFYQPNQAGLSKVEAARDTLIHVNPDVQIEVHNFNITTMDNFDTFVNRIRKGSLTDGKIDLVLSCVDNFEARMAVNMACNEENQIWMESGVSENAVSGHIQYIEPGKTACFACVPPLVVASGIDERTLKRDGVCAASLPTTMAVVAGFLVMNTLKYLLNFGEVSQYVGYNALSDFFPRDSIKPNPYCDDSHCLQRQKEYEEKVANQPVDLEVEVPEEETVVHEDNEWGIELVNESEPSAEQSSSLNAGTGLKFAYEPIKRDAQTELSPAQAATHDFMKSIKDKLVEEAQNKGK” as the sequence, how does the “soluble on expression in E. coli” value read?
A: The value was “not soluble”.

Q: For “MITRIPRSSFSANINNTAQTNEHQTLSELFYKELEDKFSGKELATPLLKSFSENCRQNGRHIFSNKDFVIKFSTSVLQADKKEITIINKNENTTLTQTIAPIFEKYLMEILPQRSDTLDKQELNLKSDRKEKEFPRIKLNGQCYFPGRPQNRIVCRHIAAQYINDIYQNVDYKPHQDDYSSAEKFLTHFNKKCKNQTLALVSSRPEGRCVAACGDFGLVMKAYFDKMESNGISVMAAILLVDNHALTVRLRIKNTTEGCTHYVVSVYDPNVTNDKIRIMSESKENIKHYSLMDFMNVDYSLLKWSNDHVINQSVAIIPALPKEQLLMLKGSVDEITPPLSPATMNLLMAIGQNHQLTQLMIQLQKMPELHRTEMLTAYNSINLPGLYLAINYGNADIVETIFNSLSETGYEGLLSKKNLMHILEAKDKNGFSGLFLAISRKDKNVVTSILNALPKLAATHHLDNEQVYKFLSAKNRTSSHVLYHVMANGDADMLKIVLNALPLLIRTCHLTKEQVLDLLKAKDFYGCPGLYLAMQNGHSDIVKVILEALPSLAQEINISASDIVDLLTAKSLARDTGLFMAMQRGHMNVINTIFNALPTLFNTFKFDKKNMKPLLLANNSNEYPGLFSAIQHKQQNVVETVYLALSDHARLFGFTAEDIMDFWQHKAPQKYSAFELAFEFGHRVIAELILNTLNKMAESFGFTDNPRYIAEKNYMEALLKKASPHTVRAAALEHHHHHH”, which “soluble on expression in E. coli” value is on record?
A: Its value is “not soluble”.
